Laboratory results published in patent US20210130473A1, “TGFßR1 INHIBITOR-ASGR ANTIBODY CONJUGATES AND USES THEREOF” (Silverback Therapeutics, Inc., priority 2019, published 2021).
Like-named read-outs stand apart in the source and are kept apart here.

T1: rat ASGR1 on CHO-S cells (rat) (UniProt P02706)
T1 sequence (looked up): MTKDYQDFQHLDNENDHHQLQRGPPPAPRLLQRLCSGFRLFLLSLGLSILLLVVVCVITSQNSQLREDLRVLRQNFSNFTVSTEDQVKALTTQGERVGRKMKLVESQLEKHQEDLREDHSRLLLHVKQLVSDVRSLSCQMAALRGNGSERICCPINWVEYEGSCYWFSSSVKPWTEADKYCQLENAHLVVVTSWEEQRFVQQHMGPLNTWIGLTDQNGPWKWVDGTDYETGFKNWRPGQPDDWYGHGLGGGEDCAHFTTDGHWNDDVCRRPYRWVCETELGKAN


Experiments:
[1] = target: T1, rat ASGR1 on CHO-S cells (rat); assay: Guava flow cytometry on CHO-S cells expressing rat ASGR1
[2] = target: Cynomolgus macaque ASGR1 on CHO-S cells (Cynomolgus macaque); assay: Guava flow cytometry on CHO-S cells expressing cynomolgus ASGR1
[3] = target: T1, rat ASGR1 on CHO-S cells (rat); assay: Guava flow cytometry on CHO-S cells expressing rat ASGR1 (repeat of Table 16)
[4] = target: human ASGR1 (asialoglycoprotein receptor 1) on cells (human) (UniProt P07306); assay: flow cytometry on HepG2 cells, anti-human IgG PE secondary, MFI (Geo Mean)
[5] = target: human ASGR1 (asialoglycoprotein receptor 1) on cells (human) (UniProt P07306); assay: as above; remark: listed apart in the source
[6] = target: Cynomolgus macaque ASGR1 on CHO-S cells (Cynomolgus macaque); assay: Guava flow cytometry on CHO-S cells expressing cynomolgus ASGR1 (repeat of Table 15)

human ASGR1 (asialoglycoprotein receptor 1) on cells (human), sequence (P07306 whole entry): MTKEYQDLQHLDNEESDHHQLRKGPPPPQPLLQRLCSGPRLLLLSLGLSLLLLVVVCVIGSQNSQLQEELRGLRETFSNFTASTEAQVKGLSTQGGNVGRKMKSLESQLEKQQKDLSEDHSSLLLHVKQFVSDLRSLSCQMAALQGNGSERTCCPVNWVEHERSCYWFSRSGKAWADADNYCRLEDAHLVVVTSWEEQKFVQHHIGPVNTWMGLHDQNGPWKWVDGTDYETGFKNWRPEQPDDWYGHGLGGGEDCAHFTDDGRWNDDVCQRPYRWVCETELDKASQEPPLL

Row | EC50 [1] [nM] | EC50 [2] [nM] | EC50 [3] [nM] | EC50 (read off the curve) [4] [µg/mL] | EC50 (read off the curve) [5] [µg/mL] | EC50 [6] [nM] | Binder
1 | 3.22 | 1.07 | 3.22 | 0.6 | 0.5 | 1.07 | ASGR1 mAb-A (antibody, from another filing, V domains shown) VH: QVQLVQSGTEVKKPGASVKVSCKASGYTFTNYDINWVRQATGQGLEWMGWMHPNSGNTGYAQKFQGRVTLTRNTSISTAYMELSSLRSEDTAVYYCASSSGWYYFDYWGQGTLVTVSS VL: DIVMTQSPDSLAVSLGERATINCKSSQSILHSSNNNNYLAWFQQKPGQPPKLLLYWASTRESGVPDRFSGSGSGTDFTLTISSLQPEDVAVYYCQQYYNTPVTFGPGTKVGIK
2 | 0.38 | 0.36 | 0.38 |  | 0.2 | 0.36 | ASGR1 mAb-B (antibody, from another filing, V domains shown) VH: EVQLVESGGGLVKPGGSLRLSCAASGFTFSSYSMNWVRQAPGKGLEWVSSISGSSSYIYYADSVKGRFTISRDNAKNSLYLQMNSLRAEDTAVYFCARGGSRGFDPWGQGTLVTVSS VL: DIQMTQSPSSLSASVGDRVTITCRASQSITSYLNWYQQKPGKAPKLLIYTASSLQSGVPSRFSGSGSGTDFTLTISSLQPEDFATYYCQQSHSFPFTFGPGTKVDIK
